# B1: VPS39 (parent)
# chain: TTLLKCYLHTNVALVAPLLRLENN
# Variants of: B1
# Assay: protein stability index of a GFP-peptide fusion (GPS, HEK-293T) (PSI 1-6); higher = more stable
# Settings: c terminus: a fixed tail appended
# 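Also: lentivirally expressed fusions sorted by FACS into six bins by GFP to DsRed ratio, PSI derived from sequencing read proportions per bin multiplied by bin number.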
row,Variant,protein stability index
1,TTLLKCYLHTNVALVAPLGRLENN [L19G],1.97
2,TTLLKCYLHTNVALVAPLQRLENN [L19Q],1.46
3,TTLLKCYLHTNVALVAPLCRLENN [L19C],1.35
4,TTLLKCYLHTNVALVAPLVRLENN [L19V],2.79
5,TTLLKCYLHTNVALVAPLPRLENN [L19P],1.52
6,TTLLKCYLHTNVKLVAPLLRLENN [A13K],2.63
7,TTLLKCYLHTNVMLVAPLLRLENN [A13M],2.14
8,TTLLKCYLHTNVDLVAPLLRLENN [A13D],1.36
9,TTLLKCYSHTNVALVAPLLRLENN [L8S],1.44
10,TTLLKCYKHTNVALVAPLLRLENN [L8K],1
11,TTLLKCYMHTNVALVAPLLRLENN [L8M],4.41
12,TTLLKCYTHTNVALVAPLLRLENN [L8T],2.5
13,TTLLKCYFHTNVALVAPLLRLENN [L8F],4.45
14,TTLLKCYDHTNVALVAPLLRLENN [L8D],1.75
15,TTLLKCYNHTNVALVAPLLRLENN [L8N],1.98
16,TTLLKCYPHTNVALVAPLLRLENN [L8P],1.13
17,TTLLKCYGHTNVALVAPLLRLENN [L8G],1.57
18,TTLLKCYIHTNVALVAPLLRLENN [L8I],3.7
19,TTLLKCYAHTNVALVAPLLRLENN [L8A],2.49
20,TTLLKCYLHTNVALVAPLLWLENN [R20W],2.11
21,TTLLKCYLHTNVALVAPLLKLENN [R20K],3.52
22,TTLLKCYLHTNVALVAPLLDLENN [R20D],2.23
23,TTLLKCYLHTNVALVAPLLELENN [R20E],1.83
24,TTLLKCYLHTNVALVAPLLMLENN [R20M],1.5

row,Variant,protein stability index
1,TTLLKCYLHTNVALVAPLLPLENN [R20P],3.33
2,TTLLKCYLHTNVALVAPLLYLENN [R20Y],3.2
3,TTLLKCYLHTNVALVAPLLGLENN [R20G],2.65
4,TTLLKCYLHTNVALVAPLLRLENI [N24I],2.02
5,TTLLKCYLHTNVALVAPLLRLEND [N24D],2.7
6,TTLLKCYLHTNVALVAPLLRLENC [N24C],3.2
7,TTLLKCYLHTNVALVAPLLRLENV [N24V],1.5
8,TTLLKCYLHTNVALVAPMLRLENN [L18M],3.28
9,TTLLKCYLHTNVALVAPYLRLENN [L18Y],2.16
10,TTLLKCYLHTNVALVAPTLRLENN [L18T],2.51
11,TTLLKCYLHTNVALVAPFLRLENN [L18F],2.06
12,TTLLKCYLHTNVALVAPKLRLENN [L18K],2.08
13,TTLLKCYLHTNVALCAPLLRLENN [V15C],1.65
14,TTLLKCYLHTNVALEAPLLRLENN [V15E],1.35
15,TTLLKCYLHTNVALFAPLLRLENN [V15F],2.62
16,TTLLKCYLHTNVALRAPLLRLENN [V15R],1.85
17,TTLLKCYLHTNVALVARLLRLENN [P17R],1.38
18,TTLLKCYLHTNVALVALLLRLENN [P17L],2.13
19,CTLLKCYLHTNVALVAPLLRLENN [T1C],1.07
20,ITLLKCYLHTNVALVAPLLRLENN [T1I],2.46
21,KTLLKCYLHTNVALVAPLLRLENN [T1K],3.52
22,YTLLKCYLHTNVALVAPLLRLENN [T1Y],3.27
23,TTRLKCYLHTNVALVAPLLRLENN [L3R],2.57
24,TTNLKCYLHTNVALVAPLLRLENN [L3N],3.03

row,Variant,protein stability index
1,TTTLKCYLHTNVALVAPLLRLENN [L3T],2.58
2,TTPLKCYLHTNVALVAPLLRLENN [L3P],1.96
3,TTKLKCYLHTNVALVAPLLRLENN [L3K],2.1
4,TTQLKCYLHTNVALVAPLLRLENN [L3Q],3.31
5,TTALKCYLHTNVALVAPLLRLENN [L3A],3.88
6,TTLLKCYLHTNVALVAPLLRLEMN [N23M],2.81
7,TTLLKCYLHTNVALVAPLLRLERN [N23R],2.37
8,TTLLKCYLHTNVALVAPLLRLECN [N23C],2.8
9,TTLLKCYLHTNVALVAPLLRLEQN [N23Q],3.88
10,TTLLKCYLHTNVALVAPLLRLEVN [N23V],2.67
11,TTLLKCYLHTNVALVAPLLRLEFN [N23F],2.11
12,TTLLKCYLHTNVALVAPLLRLEIN [N23I],2.67
13,TTLLKCYLHTNVALVAPLLRLEKN [N23K],2.27
14,TTLLKCYLHTNVALVAPLLRLEYN [N23Y],2.99
15,TTLLKCYLHTNVAVVAPLLRLENN [L14V],2.25
16,TTLLKCYLHTNVAAVAPLLRLENN [L14A],2.83
17,TTLLKCYLHTNVATVAPLLRLENN [L14T],2.5
18,TTLLKCYLHTNVADVAPLLRLENN [L14D],1.5
19,TTLLKCYLHTNVAMVAPLLRLENN [L14M],2.27
20,TTLLKCYLHTNVAYVAPLLRLENN [L14Y],3.67
21,TRLLKCYLHTNVALVAPLLRLENN [T2R],2.85
22,TALLKCYLHTNVALVAPLLRLENN [T2A],1.61
23,TTLLKCYLHGNVALVAPLLRLENN [T10G],3.27
24,TTLLKCYLHLNVALVAPLLRLENN [T10L],2.35

row,Variant,protein stability index
1,TTLLKCYLHRNVALVAPLLRLENN [T10R],3.11
2,TTLLKCYLHHNVALVAPLLRLENN [T10H],2.79
3,TTLLKCYLHENVALVAPLLRLENN [T10E],1.46
4,TTLLKCYLHTNVALVAPLLRLKNN [E22K],1.79
5,TTLLKCYLHTNVALVAPLLRLHNN [E22H],2.49
6,TTLLKCYLHTNVALVAPLLRLNNN [E22N],2.13
7,TTLLKCYLHTNVALVAPLLRLMNN [E22M],2.31
8,TTLLKCYLHTNVALVAPLLRLLNN [E22L],2.73
9,TTLLHCYLHTNVALVAPLLRLENN [K5H],2.48
10,TTLLECYLHTNVALVAPLLRLENN [K5E],2.22
11,TTLLKCYLHTNVALVAPLLRNENN [L21N],3.2
12,TTLLKCYLHTNVALVAPLLRWENN [L21W],2.05
13,TTLLKCYLHTNVALVAPLLRPENN [L21P],2.73
14,TTLLKCYLHTNVALVAPLLRMENN [L21M],3.38
15,TTLLKCYLHTNVALVAPLLRTENN [L21T],2.9
16,TTLLKCYLHTNVALVAPLLRQENN [L21Q],2.14
17,TTLLKCYLHTNVALVAPLLREENN [L21E],2.09
18,TTLLKCYLHTNVALVAPLLRYENN [L21Y],1.84
19,TTLLKCYLHTNVALVAPLLRHENN [L21H],1.51
20,TTLLKCYLHTNFALVAPLLRLENN [V12F],2.91
21,TTLLKCYLHTNSALVAPLLRLENN [V12S],3.9
22,TTLLKCYLHTNDALVAPLLRLENN [V12D],1.97

# From the supplement of paper PMC10567573
